Results on three molecules are retold here after patent US6180362A, “Peptides which inhibit ras protein activity, their preparation and use” (Rhone-Poulenc Rorer S.A., priority 1992, dated 2001).

For assay [1], the system named is maturation of Xenopus eggs induced by p21 ras Lys12. In words: Maturation of Xenopus eggs (oocytes) induced by ras, % GVBD. The assay is classed as cell-based, Xenopus laevis. As to conditions: microinjection into oocyte cytoplasm together with ras p21 protein; GVBD after 18 hours. How it is done: Xenopus laevis frogs were obtained from CNRS (Montpellier, France). The frogs are anaesthetized in ice-water and fragments of the ovaries are removed surgically and transferred to a modified Barth medium (Hirai et al., Dev. Biol. 100 (1984) 214). The stage VI oocytes are recovered by agitating the oocyte aggregates for 2 hours at ambient temperature in the presence of 2 mg/ml of collagenase (Sigma). For analysis of the maturation induced by ras, 40 nl of the protein in modified Barth medium are introduced into the cytoplasm of the oocytes by microinjection, either alone or in the presence of various concentrations of anti-GAP antibodies. For analysis of the maturation induced by hormones, the oocytes are incubated in the presence of insulin (10 μg/ml) and zinc chloride (10 μM) (bovine pancreatic insulin, Sigma) or progesterone (1 μM). The oocytes are kept at 20° C. in modified Barth medium, and the […] germinal vesicle breakdown (GVBD) is determined after incubation for 18 hours by dissection of the oocytes, which have been fixed beforehand in the presence of 5% of trichloroacetic acid. The results are expressed by the % GVBD on groups of oocytes.
E.3.1. The biological activity of the peptides according to the invention was studied by measuring their effect on the maturation of Xenopus eggs induced by p21 ras Lys12, by insulin or by progesterone.
The protocol used is the same as that described in Example E.1.1. above. The activity is measured by microinjection into the cytoplasm of the oocytes of 40 nl of the ras p21 protein in modified Barth medium, either alone or in the presence of various peptides according to the invention in varying concentrations. The results are expressed by the % of GVBD over the groups of oocytes. The results are shown on FIG. 3.

Assay [2] deals with NIH 3T3 cells cotransfected with oncogenic Ha-ras Val12. In words: Formation of foci of transformed cells. The assay is classed as cell-based. As to conditions: foci formation test, result in words. How it is done:
The activity of P9 was then evaluated in a test for formation of foci of transformed cells. The cancerous cells in fact have the property of forming transformation foci, and in particular fibroblasts NIH 3T3 expressing an oncogenic ras. The cells NIH 3T3 were cultured in DMEM medium (Dulbecco's modified Eagle medium) comprising 10% of foetal calf serum at 37° C. in a humid environment containing 5% of CO2. The plasmids pSV2-GAP and pSV2-P9 were constructed by inserting the nucleotide sequences coding for GAP and for P9 (SEQ ID No. 4) into the vector SV2. The cells NIH 3T3 were cotransfected with an oncogenic ras Ha-ras Va112, the plasmide indicated in the table, and a 10-fold excess of the gene having resistance to neomycin by the technique of transfection with cationic lipids (Schweighoffer et al., Science 256 (1992) 825). The same amount of total DNA is transfected for each dish. 24 hours after transfection, the transfected cells originating from each Petri dish (100 mm) are divided in a ratio of 1 to 10 and cultured in the same medium but in the presence of G418 (Gibco/BRL) in an amount of 0.4 mg/ml of medium. The number of transformation foci obtained per μg of transfected DNA is compatibilized after culture for 14 days. They represent the mean of four independent tests.

Assay [3] concerns the target T1, GAP-p21 interaction (Ha-ras p21-GTP and GAP) (Homo sapiens, UniProt P20936).
T1 construct: GST (glutathione S-transferase) (N); made in house; host or cells: E. coli (crude cytosol for GAP)
T1 sequence (P20936 1-1047): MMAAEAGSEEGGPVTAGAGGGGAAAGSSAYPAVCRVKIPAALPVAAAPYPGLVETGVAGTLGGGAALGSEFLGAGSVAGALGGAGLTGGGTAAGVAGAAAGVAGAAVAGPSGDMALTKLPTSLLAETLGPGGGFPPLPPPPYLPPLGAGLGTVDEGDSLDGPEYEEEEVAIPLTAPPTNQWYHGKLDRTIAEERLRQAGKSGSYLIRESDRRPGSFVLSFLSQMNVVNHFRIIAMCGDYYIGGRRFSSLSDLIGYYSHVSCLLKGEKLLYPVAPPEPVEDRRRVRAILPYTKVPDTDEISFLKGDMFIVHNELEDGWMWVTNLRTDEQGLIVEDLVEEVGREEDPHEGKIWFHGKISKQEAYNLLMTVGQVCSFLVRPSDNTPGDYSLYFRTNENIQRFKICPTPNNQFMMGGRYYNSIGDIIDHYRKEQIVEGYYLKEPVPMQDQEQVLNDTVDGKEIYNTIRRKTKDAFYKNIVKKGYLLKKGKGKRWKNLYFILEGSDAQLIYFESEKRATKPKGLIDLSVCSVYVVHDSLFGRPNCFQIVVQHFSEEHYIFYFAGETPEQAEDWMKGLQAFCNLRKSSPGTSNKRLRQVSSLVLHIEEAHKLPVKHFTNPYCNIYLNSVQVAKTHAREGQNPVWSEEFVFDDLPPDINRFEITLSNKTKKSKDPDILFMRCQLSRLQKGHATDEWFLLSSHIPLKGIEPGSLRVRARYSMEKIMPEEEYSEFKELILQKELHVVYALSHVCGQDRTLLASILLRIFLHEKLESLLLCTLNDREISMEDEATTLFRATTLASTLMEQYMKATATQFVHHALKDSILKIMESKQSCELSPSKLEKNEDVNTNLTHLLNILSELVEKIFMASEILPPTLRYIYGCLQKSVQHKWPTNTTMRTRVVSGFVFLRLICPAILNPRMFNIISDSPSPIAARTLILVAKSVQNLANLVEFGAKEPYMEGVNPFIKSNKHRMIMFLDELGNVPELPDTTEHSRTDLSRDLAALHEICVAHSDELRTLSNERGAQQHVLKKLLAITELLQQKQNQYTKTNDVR
Put plainly: GAP-stimulated GTPase reaction of Ha-ras p21-GTP (GAP-p21 interaction). The assay is classed as biochemical. How it is done: E.1.2. Absence of an effect of the Ac200 antibody on the GAP-p21 interaction The interaction between GAP and the complex p21-GTP is determined in accordance with the following protocol. The normal protein Ha-ras p21 (Rey et al., Mol. Cell. Biol. 9 (1989) 3904) is equilibrated with an excess of (γ-^32 P) GTP (3000 Ci/mmol, Dupont, NEN Research Products, Boston, Mass.) in a buffer of Tris-HCl 20 mM (pH 7.5), 100 mM (NH4)2 SO4, 10 mM dithiothreitol, 1 mM MgCl2 and 50 mg/ml of bovine serum albumin for 30 minutes at 30° C. The incubation is stopped by applying the cooled solution to a PD10 column (Pharmacia) equilibrated by a buffer of Tris-HCl 20 mM (pH 7.5), 10 mM dithiothreitol, 10 mM MgCl2 and 1 mM phenylmethylsulphonyl fluoride, to eliminate the free nucleotides. The GTPase reaction is a variant of that described by Cassel and Selinger (Biochim. Biophys. Acta 452 (1976) 538). The reaction is started by addition of 10 μl (15 μg) of cytosol obtained by sonic treatment of strains of E. coli which express GAP (cf. Example E.2.1. below for the production of GAP) to 1 pmol of Ha-ras p21-(g^-32 P) GTP in the buffer Tris-HCl 20 mM (pH 7.5), NaCl 100 mM, dithiothreitol 10 mM, MgCl2 5 mM, GTP 100 μM and BSA 50 μg/ml, to obtain a final volume of 50 μl. […] After centrifugation at 1800 g, the radioactivity is measured in samples of 200 μl of the supernatant.

B1: [768-860] PLCγ: fragment of identical length prepared by the same techniques from type γ human phospholipase C (protein, UniProt P19174 768-860, looked up, fragment)
chain: EPDYGALYEGRNPGFYVEANPMPTFKCAVKALFDYKAQREDELTFIKSAIIQNVEKQEGGWWRGDYGGKKQLWFPSNYVEEMVNPVALEPERE
For the molecule B1, in assay [1], the “Inhibition of the transformation activity of the ras protein (maturation of Xenopus eggs, % GVBD)” value is “does not have the activity of the peptide according to the invention”.

B2: P9: Peptide SEQ ID No. 4, purified as GST fusion protein and separated from GST by thrombin cleavage (protein)
chain: GGGFPPLPPPPYLPPLGAGLGTVDEGDSLDGPEYEEEEVAIPLTAPPTNQWYHGKLDRTIAEERLRQAGKSGSYLIRESDRRPGSFVLSFLSQMNVVNHFRIIAMCGDYYIGGRRFSSLSDLIGYYSHVSCLLKGEKLLYPVAPPEPVEDRRRVRAILPYTKVPDTDEISFLKGDMFIVHNELEDGWMWVTNLRTDEQGLIVEDLVEEVGREEDPHEGKIWFHGKISKQEAYNLLMTVGQVCSFLVRPSDNTPGDYSLYFRTNENIQRFKICPTPNNQFMMGGRYYNSIGDIIDHYRKEQIVEGYYLKEPVPMQDQEQVLNDTVDGKEIYNTIRRKTKDAFYKNIVKKGYLLKKGKGKRWKNLYFILEGSDAQLIYFESEKRATKPKGLIDLSVCSVYVVHDSLFGRPNCFQIVVQHFSEEHYIFYFAGETPEQAEDWMKGLQAFCNLRKSSPGTSNKRLRQVSSLVLHIEEAHKLPVKHFTNPYCNIYLNSVQVAKTHAREGQNPVWSEEFVFDD
As to B2, the “Inhibition of the transformation activity of the ras protein (maturation of Xenopus eggs, % GVBD)” value in assay [1] was “completely blocks maturation of ovocytes”. Further, the “Reduction of the transforming power of an oncogenic ras gene” value in assay [2] was “capable of very greatly reducing the transforming power of an oncogenic ras gene”.

B3: [275-351] GAP: fragment of the protein GAP holding the effector region, about residues 275 to 350; peptide SEQ ID No. 2 (protein)
chain: APPEPVEDRRRVRAILPYTKVPDTDEISFLKGDMFIVHNELEDGWMWVTNLRTDEQGLIVEDLVEEVGREEDPHEGKI
On to B3, for which the “Relative GAP activity” value in assay [3] (None = 100, GTPase reaction 3 minutes at 30° C., 1 pmol Ha-ras p21-GTP, E. coli cytosol expressing GAP) was found to be 100. The “Effect on the GAP-p21 interaction” value in assay [3] (same GTPase test, result in words) was “does not modify the functional interaction of GAP-p21”. Also, the “Inhibition of the transformation activity of the ras protein (maturation of Xenopus eggs, % GVBD)” value in assay [1] is reported as “capable of inhibiting the transformation activity of the ras protein”.
